Patent US20100256332A1, “GLP-1 Fusion Peptides, Their Production and Use” (BIOCOMPATIBLES UK LTD, priority 2007, published 2010)

Tested on: type II diabetic mice (C57BUKs-Lepr db/db)
Assay: In vivo bioactivity in type II diabetic mice
Parameters: species or system mouse
Conditions: 5 μg peptide s.c. twice a day, Day 2, 4, 7, 10, overnight fasted
Description: 11-week-old type II diabetic mice (C57BUKs-Lepr^db/db, Harlan) were treated with 5 μg peptide by subcutaneous injection twice a day at 9 a.m. and 5 p.m. (n=5 per group).
Blood glucose was measured before (day 0) and after treatment with GLP^CM peptides (Day 2, 4, 7, 10) at 10 a.m. after an overnight fastening period. Data were presented in relation to blood glucose levels measured at day 0.
Best results were obtained with recombinant SEQ ID No.:6 (CM1) and synthetic SEQ ID No.:8 (CM3). In FIG. 5 (y-axis) the relative effect of the treatment is shown. Blood glucose at day=0 was set to 1. Untreated animals undergo continuous increase in blood glucose level over time, whereas animals treated with inventive peptides display grosso modo a continuous decrease of the blood glucose level over time.

B1: GLP-1(7-37)-IP2-RR-GLP2 (peptide)
chain: HAEGTFTSDVSSYLEGQAAKEFIAWLVKGRGRRDFPEEVAIAEELGRRHADGSFSDEMSTILDNLATRDFINWLIQTKITDKK
notes: 83 aa fusion peptide
  anti-hyperglycemia effect (blood glucose in relation to day 0): anti-hyperglycemia effect
